Assay results reported in patent US20260062442A1, “COMPOSITIONS AND METHODS FOR PURIFYING ANTIGEN-BINDING ANTIBODY FRAGMENTS USING PEPTIDE LIGANDS” (North Carolina State University, priority 2022, published 2026).
One block for each molecule: values may come before it. Ends that are not written are not given here.

Tests used:
human polyclonal Fab [1] = assay: Dynamic binding of human polyclonal Fab on peptide-Toyopearl resins (chromatograms); settings: residence time 2 min; for binding of human polyclonal Fab (chromatogram): human polyclonal Fab at 2 mg/mL in PBS; for amount of human Fab that flowed through: human Fab at 2 mg/mL in PBS
Protocol: (§1) Dynamic binding of human Fab-κ and Fab-λ in non-competitive condition. The peptides listed in Table 3 were synthesized on Toyopearl resins as described herein, and the resulting adsorbents were packed into 0.1 mL (30×2.1 mm) columns, installed on a Waters Alliance 2695 HPLC system (Milford, MA), and equilibrated with PBS at pH 7.4. […] The subsequent chromatographic steps of washing with PBS, elution with 0.2 M acetate buffer pH 4, regeneration with 0.1 M glycine buffer pH 2.5, and equilibration with PBS were all performed at 348 cm/h. The dynamic binding protocol was repeated with 50 μL of human Fab-κ and Fab-λ, both at 1 mg/mL in PBS. The column effluent was continuously monitored at 280 nm by UV spectrophotometry. The yield was determined by peak area analysis and determined by taking the area of the elution peak divided by the flow-through, elution, and regeneration peak areas. Finally, the dynamic binding capacity at 10% flowthrough of […]-Toyopearl resin was measured via continuous loading of a solution of human polyclonal Fab at either 1, 2, or 5 mg/mL in PBS at the linear velocity of either 173, 87, or 35 cm/h, corresponding to the residence times (RT) of 1, 2, and 5 min, until reaching saturation of the adsorbent. The dynamic binding capacity of Protein L-agarose resin was measured via continuous loading of human polyclonal Fab at 1 mg/mL in PBS at the linear velocity of either 173 or 87 cm/h, corresponding to RT of 1 and 2 min, until reaching saturation of the adsorbent.
Secondary selection of Fab-binding peptide ligands via dynamic binding studies. The candidate ligands selected from library screening were conjugated to Toyopearl AF-Amino-650M resin and evaluated via Fab binding studies in dynamic mode. Toyopearl resin was selected for chromatographic evaluation owing to its low non-specific protein adsorption, low compressibility, and strong chemical stability. The residence time of 2 minutes (RT: 2 min) was adopted to mimic the loading conditions utilized in industrial bioprocessing. A solution of human polyclonal Fab at 2 mg/mL in PBS was adopted as feedstock to discern ligands that either bind all Fab or target selectively Fab-κ or Fab-λ; accordingly, the top ligands by elution peak area were subjected to further analysis with either pure k or λ subtypes. Finally, in line with library screening, A 0.2 M acetate buffer was utilized at pH 4 for Fab elution; this value of pH is sufficient to ensure high yield without compromising the integrity and bioactivity of the product. This represents a distinct advantage of peptide ligands with moderate affinity compared to high-affinity protein ligands; for comparison, Protein L as well as KappaSelect and LambdaFabSelect resins require elution at pH 2.5-3.

monoclonal Fab-κ = settings: cited from earlier work
human Fab-κ (human) [2] = assay: equilibrium adsorption isotherm on resin, Langmuir fit
human Fab-κ = assay: Dynamic binding of human Fab-κ in non-competitive condition on peptide-Toyopearl resins; settings: κ and λ Fabs, 1 mg/mL in PBS, residence time 2 min
Protocol: as §1, with “The dynamic binding capacity of Protein L-agarose resin was measured via continuous loading of human polyclonal Fab at 1 mg/mL in PBS at the linear velocity of either 173 or 87 cm/h, corresponding to RT of 1 and 2 min, until reaching saturation of the adsorbent.” left out

human polyclonal Fab [3] = assay: Dynamic binding capacity at 10% breakthrough with human polyclonal Fab in PBS; settings: RT of 2 min, range
Protocol: as §1, with “The dynamic binding capacity of Protein L-agarose resin was measured via continuous loading of human polyclonal Fab at 1 mg/mL in PBS at the linear velocity of either 173 or 87 cm/h, corresponding to RT of 1 and 2 min, until reaching saturation of the adsorbent.” left out

scFv13R4 = assay: Purification of scFv from P. pastoris perfusate; settings: scFv eluted at 0.1 M glycine pH 2.5, not at pH 4
Protocol: Preparation of spiked feedstock. A wild-type X33 P. pastoris strain was obtained from ThermoFisher Scientific as an agar stab. This stab was used to create freezer stocks, which were stored at −80° C. A vial from the freezer stock was thawed, plated on a yeast extract peptone dextrose (YPD) agar plate, and incubated at 30° C. A single colony was then used to inoculate a 1 L vented shake flask containing 100 mL of Buffered Glycerol-complex Medium (BMGY), and the flask was incubated at 250 rpm at 30° C. A 300 mL bioreactor connected to a perfusion device was prepared and inoculated with cells harvested from the shake flask. After an initial growth phase, the perfusion system was activated, and fluid was continuously extracted from the bioreactor at a rate of 1.5 vessel volumes per day (VVD) while retaining the cells. Simultaneously to activating the perfusion system, a 2% v/v methanol feedstock containing IgG at 0.5 mg/mL began to be fed continuously into the bioreactor at 1.5 VVD. […]
Purification of scFv from P. pastoris perfusate. […] Washing, elution, and regeneration steps were all performed at 0.5 mL/min (231 cm/h), while the effluent was continuously monitored by UV spectrophotometry at 280 nm. […] The collected fractions were analyzed via non-reducing SDS-PAGE analysis after concentration and diafiltration to PBS at pH 7.4 by a 10 kDa MWCO spin concentrator.

[4] = biological target: engineered monoclonal Fab-κ (0.171 mg/mL in clarified CHO-K1 cell culture harvest); assay: capture from CHO-K1 CCCF with engineered Fab 0.171 mg/mL, elution pH 2.5; yield by anti-human Fab ELISA
[5] = biological target: human polyclonal Fab (human); assay: equilibrium adsorption isotherm on resin, Langmuir fit
human Fab-κ (human) [6] = assay: dynamic binding on peptide-Toyopearl column, Fab 1 mg/mL in PBS, residence time 2 min, elution pH 4; yield = elution peak area over total peak area
human Fab-λ (human) [7] = assay: as above
[8] = biological target: human polyclonal Fab (human); assay: dynamic binding on peptide-Toyopearl column, human Fab 2 mg/mL in PBS, residence time 2 min
Certolizumab pegol [9] = assay: capture from CHO-S CCCF spiked with Certolizumab 1 mg/mL, elution pH 4
[10] = biological target: human polyclonal Fab (human); assay: dynamic binding capacity at 10% breakthrough, Fab 1 mg/mL in PBS, residence time 1 min
[11] = biological target: human polyclonal Fab (human); assay: dynamic binding capacity at 10% breakthrough, Fab 1 mg/mL in PBS, residence time 2 min
[12] = biological target: human polyclonal Fab (human); assay: dynamic binding capacity at 10% breakthrough, Fab 1 mg/mL in PBS, residence time 5 min
[13] = biological target: human polyclonal Fab (human); assay: dynamic binding capacity at 10% breakthrough, Fab 2 mg/mL in PBS, residence time 2 min
[14] = biological target: human polyclonal Fab (human); assay: dynamic binding capacity at 10% breakthrough, Fab 5 mg/mL in PBS, residence time 1 min
[15] = biological target: human polyclonal Fab (human); assay: dynamic binding capacity at 10% breakthrough, Fab 5 mg/mL in PBS, residence time 2 min
human Fab-κ (human) [16] = assay: dynamic binding on peptide-Toyopearl column, Fab 1 mg/mL in PBS, residence time 2 min
human Fab-λ (human) [17] = assay: as above
[18] = biological target: human polyclonal IgG (human); assay: capture of IgG 0.5 mg/mL from P. pastoris perfusate, elution pH 4; yield by Protein G HPLC
[19] = biological target: engineered monoclonal Fab-κ (0.171 mg/mL in clarified CHO-K1 cell culture harvest); assay: capture from CHO-K1 CCCF with engineered Fab 0.171 mg/mL, elution pH 4; yield by anti-human Fab ELISA
[20] = biological target: human polyclonal Fab (human); assay: capture from null CHO-S CCCF spiked with human Fab 1 mg/mL, elution pH 4; yield by anti-human Fab ELISA
Certolizumab pegol [21] = assay: capture from null CHO-S CCCF spiked with Certolizumab 1 mg/mL, elution pH 4; yield by anti-human Fab ELISA
[22] = biological target: human polyclonal IgG (human); assay: dynamic binding capacity at 10% breakthrough, P. pastoris perfusate with IgG 0.5 mg/mL, residence time 2 min

binding of human polyclonal Fab (chromatogram) (human polyclonal Fab [1]): failed to bind
Molecule: WIPNSEFEHERTK [B1, peptide ligand for monoclonal Fab-κ identified by Nascimento et al]
affinity for two other monoclonal Fabs (monoclonal Fab-κ): little-to-no affinity

Kd (human Fab-κ (human) [2]): 30.9 nM | Qmax (mg per mL of resin) (human Fab-κ (human) [2]): 20.7
Molecule: Protein L-Sepharose resin

amount of human Fab that flowed through (human polyclonal Fab [1]): 61%
Molecule: WHYNWQDVSDRQ [A5, variant peptide ligand developed by Nascimento et al]

fraction of the loaded Fab bound (human Fab-κ): approximately 90% | binding of human polyclonal Fab (chromatogram) (human polyclonal Fab [1]): very low flow-through peak area | DBC10% (human polyclonal Fab [3]): 6 to 16 mg/mL
Molecule: FRWNFHRNTFFP
relative affinity for scFv vs Fab (scFv13R4): higher affinity for scFv than Fab

amount of human Fab that flowed through (human polyclonal Fab [1]): 79%
Molecule: HQNHHSTFRWEIY [C7, variant peptide ligand developed by Nascimento et al]

fraction of the loaded Fab bound (human Fab-κ): approximately half
Molecule: IIHRRAFWWFPN

Yield [4]: 91%
Molecule: Protein L-agarose resin

Kd (human Fab-κ (human) [2]): 5820 nM | Qmax (mg per mL of resin) (human Fab-κ (human) [2]): 11.9 | Kd [5]: 5140 nM | Qmax (mg per mL of resin) [5]: 13.5 | Fab-κ Yield (human Fab-κ (human) [6]): 55% | Fab-λ Yield (human Fab-λ (human) [7]): 66%
Molecule: IIHRRAFWWFPN (also: C-terminus attached to Toyopearl AF-Amino-650M resin or ChemMatrix bead)

Fab-κ Yield (human Fab-κ (human) [6]): 42% | Fab-λ Yield (human Fab-λ (human) [7]): 42%
Molecule: IRHHNIWFNTIA (also: C-terminus attached to Toyopearl AF-Amino-650M resin or ChemMatrix bead)

percent of human Fab that flowed through (unbound) [8]: 79%
Molecule: HQNHHSTFRWEIY (also: attached to Toyopearl resin, site not given here)

Kd (human Fab-κ (human) [2]): 2050 nM | Qmax (mg per mL of resin) (human Fab-κ (human) [2]): 19 | Kd [5]: 2160 nM | Qmax (mg per mL of resin) [5]: 20.4 | Yield (Certolizumab pegol [9]): 96.5% | DBC10% (mg Fab per mL of resin) [10]: 4.5 | DBC10% (mg Fab per mL of resin) [11]: 6 | DBC10% (mg Fab per mL of resin) [12]: 7 | DBC10% (mg Fab per mL of resin) [13]: 10.9 | DBC10% (mg Fab per mL of resin) [14]: 15.5 | DBC10% (mg Fab per mL of resin) [15]: 16.5 | percent of the load bound (human Fab-κ (human) [16]): 90% | percent of the load bound (human Fab-λ (human) [17]): 90% | Yield [18]: 33% | Yield [19]: 93.3% | Yield [20]: 94.1% | Yield (Certolizumab pegol [21]): 96% | DBC10% (mg IgG per mL of resin) [22]: 13.4 | DBC10% (mg IgG per mL resin) [22]: 13.4 | Fab-κ Yield (human Fab-κ (human) [6]): 89% | Fab-λ Yield (human Fab-λ (human) [7]): 91%
Molecule: FRWNFHRNTFFP (also: C-terminus attached to Toyopearl AF-Amino-650M resin or ChemMatrix bead)

Fab-κ Yield (human Fab-κ (human) [6]): 40% | Fab-λ Yield (human Fab-λ (human) [7]): 53%
Molecule: RWTIWPPNWHPP (also: C-terminus attached to Toyopearl AF-Amino-650M resin or ChemMatrix bead)

percent of human Fab that flowed through (unbound) [8]: 61%
Molecule: WHYNWQDVSDRQ (also: attached to Toyopearl resin, site not given here)
